The target of experiment [1] is T1, human CD3ε/δ (ACRO systems, CDD-H52W1) (human, UniProt P07766 23-126; P04234 22-105).
T1 construct: bought recombinant heterodimer; also called human CD3 epsilon/delta; Human CD3ε/CD3δ
Briefly: serum-stability ELISA, Day 1 vs Day 0.
Procedure: (§1) The samples to be tested were centrifuged at 4° C. at 12000 rpm for 30 minutes to remove the precipitate. 200 μl of each sample to be tested (0.5 mg/ml) was collected in a 1.5 ml Eppendorf tube. An equal volume of human serum (GEMINI, H2OYOOK) was added, mixed thoroughly, and the mixture was incubated in a 37° C. constant temperature CO₂ incubator. For a total of 10 days, 40 μl samples was aspirated every day and stored at −20° C.
(§2) Enzyme-linked immunosorbent assay (ELISA) was used to test the bispecific antibodies' binding to human CEA and human CD3 epsilon/delta antigen. The steps are as follows: the antigen human CD3ε/δ (ACRO systems, CDD-H52W1) and the recombinant tumor antigen human CEA (CEACAM-5/CD66e, ACRO systems, CE5-H5226) were diluted to 1 μg/ml with PBS, and then added to the 96-well plate at 100 μl per well. The wells were coated overnight at 4° C. After washing 3 times with 0.05% PBST, 200 μl 5% skimmed milk powder was added to each well and incubated at 37° C. for 2 h. After washing 3 times with 0.05% PBST, 100 μl primary antibody sample (10 μg/ml) was added to each well, and incubated at 37° C. for 2 h. After washing 3 times with 0.05% PBST, 100 μl (1:6000) diluted secondary antibody goat anti-human Fc-HRP (sigma, A2170) was added to each well, incubated at room temperature for 1 h. After washing 8 times with 0.05% PBST, 50 μl TMB color developing solution was added to each well, and incubated at room temperature for 10-15 min. 50 μl 1 mM HCl was added to each well to stop the color development. 450 nm Absorbance (OD) was read.
(§3) The binding of antibodies to antigen was calculated according to the following formula: Binding (%)=[(ODdayn−ODb)/(ODday0−ODb)]×100%. ODdayn: experimental well (the protein was stored in the serum for n days); ODday0: control well (the protein was not stored in the serum); ODb: blank well (no primary antibody added).

The target in experiment [2] is T1, human CD3ε/δ (ACRO systems, CDD-H52W1). As to the kind of experiment: serum-stability ELISA, Day 2 vs Day 0.
Procedure: as §1, §2, §3
The target is the same in experiment [3]. Briefly: serum-stability ELISA, Day 5 vs Day 0.
Procedure: as §1, §2, §3
For experiment [4] the target is unchanged. As to the kind of experiment: serum-stability ELISA, Day 6 vs Day 0.
Procedure: as §1, §2, §3
Experiment [5] shares this target. As to the kind of experiment: serum-stability ELISA, Day 7 vs Day 0.
Procedure: as §1, §2, §3
The target is the same in experiment [6]. Briefly: serum-stability ELISA, Day 9 vs Day 0.
Procedure: as §1, §2, §3
Experiment [7] shares this target. As to the kind of experiment: serum-stability ELISA, Day 10 vs Day 0.
Procedure: as §1, §2, §3
For experiment [8] the target is unchanged. Briefly: serum-stability ELISA, Day 0 (reference).
Procedure: as §1, §2, §3

B1: 108 (Knob-Fab+CEA-Hole) (bispecific antibody, human IgG4 S228P, kappa, F234A L235A)
heavy: ESKYGPPCPPCPAPEAAGGPSVFLFPPKPKDTLMISRTPEVTCVVVDVSQEDPEVQFNWYVDGVEVHNAKTKPREEQFNSTYRVVSVLTVLHQDWLNGKEYKCKVSNKGLPSSIEKTISKAKGQPREPQVYTLPPCQEEMTKNQVSLWCLVKGFYPSDIAVEWESNGQPENNYKTTPPVLDSDGSFFLYSRLTVDKSRWQEGNVFSCSVMHEALHNHYTQKSLSLSLGGGGSGGGGSEVKLLESGGGLVQPKGSLKLSCAASGFTFNTYAMNWVRQAPGKGLEWVARIRSKYNNYATYYADSVKDRFTISRDDSQSILYLQMNNLKTEDTAMYYCVRHGNFGNSYVSWFAYWGQGTLVTVSSASTKGPSVFPLAPCSRSTSESTAALGCLVKDYFPEPVTVSWNSGALTSGVHTFPAVLQSSGLYSLSSVVTVPSSSLGTKTYTCNVDHKPSNTKVDKRV
chain: EVQLVESGGGFVQAGESLTLSCTSSTLTFTPYRMAWYRQAPGKQRDLVADISSGDGRTTNYADFAKGRFTISRDNIKNTVFLRMTNLKPEDTAVYYCNTFVSFVGIARSWGQGTQVTVSSESKYGPPCPPCPAPEAAGGPSVFLFPPKPKDTLMISRTPEVTCVVVDVSQEDPEVQFNWYVDGVEVHNAKTKPREEQFNSTYRVVSVLTVLHQDWLNGKEYKCKVSNKGLPSSIEKTISKAKGQPREPQVCTLPPSQEEMTKNQVSLSCAVKGFYPSDIAVEWESNGQPENNYKTTPPVLDSDGSFFLVSRLTVDKSRWQEGNVFSCSVMHEALHNRFTQKSLSLSL
light: QAVVTQESALTTSPGETVTLTCRSSTGAVTTSNYANWVQEKPDHLFTGLIGGTNKRAPGVPARFSGSLIGDKAALTITGAQTEDEAIYFCALWYSNLWVFGGGTKVEIKRTVAAPSVFIFPPSDEQLKSGTASVVCLLNNFYPREAKVQWKVDNALQSGNSQESVTEQDSKDSTYSLSSTLTLSKADYEKHKVYACEVTHQGLSSPVTKSFNRGEC
notes: TA1 Fab, C17 VHH, IgG4 Fc KIH
As to B1, the Binding % was 93% in experiment [1]; 98% in experiment [2]; 96.1% in experiment [3]; 98.4% in experiment [4]; 98.8% in experiment [5]; 98.5% in experiment [6]. Besides, the Binding % in experiment [7] was 66.7%; in experiment [8], 100%.

B2: 111 (Knob+CEA-Hole-Fab) (bispecific antibody, human IgG4 S228P, kappa, F234A L235A)
chain: ESKYGPPCPPCPAPEAAGGPSVFLFPPKPKDTLMISRTPEVTCVVVDVSQEDPEVQFNWYVDGVEVHNAKTKPREEQFNSTYRVVSVLTVLHQDWLNGKEYKCKVSNKGLPSSIEKTISKAKGQPREPQVYTLPPCQEEMTKNQVSLWCLVKGFYPSDIAVEWESNGQPENNYKTTPPVLDSDGSFFLYSRLTVDKSRWQEGNVFSCSVMHEALHNHYTQKSLSLSL
heavy: EVQLVESGGGFVQAGESLTLSCTSSTLTFTPYRMAWYRQAPGKQRDLVADISSGDGRTTNYADFAKGRFTISRDNIKNTVFLRMTNLKPEDTAVYYCNTFVSFVGIARSWGQGTQVTVSSESKYGPPCPPCPAPEAAGGPSVFLFPPKPKDTLMISRTPEVTCVVVDVSQEDPEVQFNWYVDGVEVHNAKTKPREEQFNSTYRVVSVLTVLHQDWLNGKEYKCKVSNKGLPSSIEKTISKAKGQPREPQVCTLPPSQEEMTKNQVSLSCAVKGFYPSDIAVEWESNGQPENNYKTTPPVLDSDGSFFLVSRLTVDKSRWQEGNVFSCSVMHEALHNRFTQKSLSLSLGGGGSGGGGSEVKLLESGGGLVQPKGSLKLSCAASGFTFNTYAMNWVRQAPGKGLEWVARIRSKYNNYATYYADSVKDRFTISRDDSQSILYLQMNNLKTEDTAMYYCVRHGNFGNSYVSWFAYWGQGTLVTVSSASTKGPSVFPLAPCSRSTSESTAALGCLVKDYFPEPVTVSWNSGALTSGVHTFPAVLQSSGLYSLSSVVTVPSSSLGTKTYTCNVDHKPSNTKVDKRV
light: QAVVTQESALTTSPGETVTLTCRSSTGAVTTSNYANWVQEKPDHLFTGLIGGTNKRAPGVPARFSGSLIGDKAALTITGAQTEDEAIYFCALWYSNLWVFGGGTKVEIKRTVAAPSVFIFPPSDEQLKSGTASVVCLLNNFYPREAKVQWKVDNALQSGNSQESVTEQDSKDSTYSLSSTLTLSKADYEKHKVYACEVTHQGLSSPVTKSFNRGEC
notes: TA1 Fab, C17 VHH, IgG4 Fc KIH
For the molecule B2, the Binding % amounted to 93.2% in experiment [1]; 99.3% in experiment [2]; 103% in experiment [3]; 99.2% in experiment [4]; 106% in experiment [5]; 96.5% in experiment [6]. The Binding % stood at 78.2% in experiment [7] and 100% in experiment [8].

B3: 110 (CEA-Knob+Hole-Fab) (bispecific antibody, human IgG4 S228P, kappa, F234A L235A)
chain: EVQLVESGGGFVQAGESLTLSCTSSTLTFTPYRMAWYRQAPGKQRDLVADISSGDGRTTNYADFAKGRFTISRDNIKNTVFLRMTNLKPEDTAVYYCNTFVSFVGIARSWGQGTQVTVSSESKYGPPCPPCPAPEAAGGPSVFLFPPKPKDTLMISRTPEVTCVVVDVSQEDPEVQFNWYVDGVEVHNAKTKPREEQFNSTYRVVSVLTVLHQDWLNGKEYKCKVSNKGLPSSIEKTISKAKGQPREPQVYTLPPCQEEMTKNQVSLWCLVKGFYPSDIAVEWESNGQPENNYKTTPPVLDSDGSFFLYSRLTVDKSRWQEGNVFSCSVMHEALHNHYTQKSLSLSL
heavy: ESKYGPPCPPCPAPEAAGGPSVFLFPPKPKDTLMISRTPEVTCVVVDVSQEDPEVQFNWYVDGVEVHNAKTKPREEQFNSTYRVVSVLTVLHQDWLNGKEYKCKVSNKGLPSSIEKTISKAKGQPREPQVCTLPPSQEEMTKNQVSLSCAVKGFYPSDIAVEWESNGQPENNYKTTPPVLDSDGSFFLVSRLTVDKSRWQEGNVFSCSVMHEALHNRFTQKSLSLSLGGGGSGGGGSEVKLLESGGGLVQPKGSLKLSCAASGFTFNTYAMNWVRQAPGKGLEWVARIRSKYNNYATYYADSVKDRFTISRDDSQSILYLQMNNLKTEDTAMYYCVRHGNFGNSYVSWFAYWGQGTLVTVSSASTKGPSVFPLAPCSRSTSESTAALGCLVKDYFPEPVTVSWNSGALTSGVHTFPAVLQSSGLYSLSSVVTVPSSSLGTKTYTCNVDHKPSNTKVDKRV
light: QAVVTQESALTTSPGETVTLTCRSSTGAVTTSNYANWVQEKPDHLFTGLIGGTNKRAPGVPARFSGSLIGDKAALTITGAQTEDEAIYFCALWYSNLWVFGGGTKVEIKRTVAAPSVFIFPPSDEQLKSGTASVVCLLNNFYPREAKVQWKVDNALQSGNSQESVTEQDSKDSTYSLSSTLTLSKADYEKHKVYACEVTHQGLSSPVTKSFNRGEC
notes: TA1 Fab, C17 VHH, IgG4 Fc KIH
On to B3, for which the Binding % in experiment [1] came to 68.5%; in experiment [2], 74.3%; in experiment [3], 78.1%; in experiment [4], 76.9%; in experiment [5], 77.5%; in experiment [6], 77%. Besides, the Binding % turned out to be 56.1% in experiment [7] and 100% in experiment [8].

B4: 109 (Knob-Fab+Hole-CEA) (bispecific antibody, human IgG4 S228P, kappa, F234A L235A)
heavy: ESKYGPPCPPCPAPEAAGGPSVFLFPPKPKDTLMISRTPEVTCVVVDVSQEDPEVQFNWYVDGVEVHNAKTKPREEQFNSTYRVVSVLTVLHQDWLNGKEYKCKVSNKGLPSSIEKTISKAKGQPREPQVYTLPPCQEEMTKNQVSLWCLVKGFYPSDIAVEWESNGQPENNYKTTPPVLDSDGSFFLYSRLTVDKSRWQEGNVFSCSVMHEALHNHYTQKSLSLSLGGGGSGGGGSEVKLLESGGGLVQPKGSLKLSCAASGFTFNTYAMNWVRQAPGKGLEWVARIRSKYNNYATYYADSVKDRFTISRDDSQSILYLQMNNLKTEDTAMYYCVRHGNFGNSYVSWFAYWGQGTLVTVSSASTKGPSVFPLAPCSRSTSESTAALGCLVKDYFPEPVTVSWNSGALTSGVHTFPAVLQSSGLYSLSSVVTVPSSSLGTKTYTCNVDHKPSNTKVDKRV
chain: ESKYGPPCPPCPAPEAAGGPSVFLFPPKPKDTLMISRTPEVTCVVVDVSQEDPEVQFNWYVDGVEVHNAKTKPREEQFNSTYRVVSVLTVLHQDWLNGKEYKCKVSNKGLPSSIEKTISKAKGQPREPQVCTLPPSQEEMTKNQVSLSCAVKGFYPSDIAVEWESNGQPENNYKTTPPVLDSDGSFFLVSRLTVDKSRWQEGNVFSCSVMHEALHNRFTQKSLSLSLGGGGSGGGGSEVQLVESGGGFVQAGESLTLSCTSSTLTFTPYRMAWYRQAPGKQRDLVADISSGDGRTTNYADFAKGRFTISRDNIKNTVFLRMTNLKPEDTAVYYCNTFVSFVGIARSWGQGTQVTVSS
light: QAVVTQESALTTSPGETVTLTCRSSTGAVTTSNYANWVQEKPDHLFTGLIGGTNKRAPGVPARFSGSLIGDKAALTITGAQTEDEAIYFCALWYSNLWVFGGGTKVEIKRTVAAPSVFIFPPSDEQLKSGTASVVCLLNNFYPREAKVQWKVDNALQSGNSQESVTEQDSKDSTYSLSSTLTLSKADYEKHKVYACEVTHQGLSSPVTKSFNRGEC
notes: TA1 Fab, C17 VHH, IgG4 Fc KIH
For the molecule B4, the Binding % worked out at 97.5% in experiment [1]; 88.5% in experiment [2]; 88% in experiment [3]; 85.7% in experiment [4]; 87.6% in experiment [5]; 83.3% in experiment [6]. The Binding % came to 62.1% in experiment [7] and 100% in experiment [8].

The values above are taken from US20240400715A1 (VIBRANT PHARMA, published 2024).
